{
  "source": "patent US20210275695A1",
  "about": "(CASE WESTERN RESERVE UNIVERSITY, published 2021)",
  "key": {"[1]": {"biological_target": "T1, EDB fragment (extradomain B of fibronectin), expressed in E. coli with an N-terminal 10xHis tag (UniProt P02751 1266-1356)", "T1 construct": "domain: EDB; also called EDB protein; purified EDB; not shown: N-terminal 10xHis tag from the pQE-T7-1 vector", "T1 sequence (P02751 1266-1356)": "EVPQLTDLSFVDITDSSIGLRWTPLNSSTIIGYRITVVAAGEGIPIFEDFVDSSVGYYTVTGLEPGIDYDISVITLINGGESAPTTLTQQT", "test": "ELISA, HRP-conjugated peptide on EDB protein"}, "[2]": {"biological_target": "T2, EDA (extradomain A of fibronectin) (UniProt P02751 1722-1811, limits assumed)", "T2 construct": "domain: EDA", "T2 sequence (P02751 1722-1811 limits assumed)": "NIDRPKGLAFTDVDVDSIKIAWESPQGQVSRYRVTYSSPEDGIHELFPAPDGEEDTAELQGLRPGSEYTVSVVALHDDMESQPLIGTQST", "test": "ELISA, HRP-conjugated peptide"}, "[3]": {"biological_target": "extradomain-B fibronectin (EDB-FN), human, as secreted or deposited by human cancer cells and in human tumour tissue (human) (UniProt P02751)", "sequence (P02751 32-2477)": "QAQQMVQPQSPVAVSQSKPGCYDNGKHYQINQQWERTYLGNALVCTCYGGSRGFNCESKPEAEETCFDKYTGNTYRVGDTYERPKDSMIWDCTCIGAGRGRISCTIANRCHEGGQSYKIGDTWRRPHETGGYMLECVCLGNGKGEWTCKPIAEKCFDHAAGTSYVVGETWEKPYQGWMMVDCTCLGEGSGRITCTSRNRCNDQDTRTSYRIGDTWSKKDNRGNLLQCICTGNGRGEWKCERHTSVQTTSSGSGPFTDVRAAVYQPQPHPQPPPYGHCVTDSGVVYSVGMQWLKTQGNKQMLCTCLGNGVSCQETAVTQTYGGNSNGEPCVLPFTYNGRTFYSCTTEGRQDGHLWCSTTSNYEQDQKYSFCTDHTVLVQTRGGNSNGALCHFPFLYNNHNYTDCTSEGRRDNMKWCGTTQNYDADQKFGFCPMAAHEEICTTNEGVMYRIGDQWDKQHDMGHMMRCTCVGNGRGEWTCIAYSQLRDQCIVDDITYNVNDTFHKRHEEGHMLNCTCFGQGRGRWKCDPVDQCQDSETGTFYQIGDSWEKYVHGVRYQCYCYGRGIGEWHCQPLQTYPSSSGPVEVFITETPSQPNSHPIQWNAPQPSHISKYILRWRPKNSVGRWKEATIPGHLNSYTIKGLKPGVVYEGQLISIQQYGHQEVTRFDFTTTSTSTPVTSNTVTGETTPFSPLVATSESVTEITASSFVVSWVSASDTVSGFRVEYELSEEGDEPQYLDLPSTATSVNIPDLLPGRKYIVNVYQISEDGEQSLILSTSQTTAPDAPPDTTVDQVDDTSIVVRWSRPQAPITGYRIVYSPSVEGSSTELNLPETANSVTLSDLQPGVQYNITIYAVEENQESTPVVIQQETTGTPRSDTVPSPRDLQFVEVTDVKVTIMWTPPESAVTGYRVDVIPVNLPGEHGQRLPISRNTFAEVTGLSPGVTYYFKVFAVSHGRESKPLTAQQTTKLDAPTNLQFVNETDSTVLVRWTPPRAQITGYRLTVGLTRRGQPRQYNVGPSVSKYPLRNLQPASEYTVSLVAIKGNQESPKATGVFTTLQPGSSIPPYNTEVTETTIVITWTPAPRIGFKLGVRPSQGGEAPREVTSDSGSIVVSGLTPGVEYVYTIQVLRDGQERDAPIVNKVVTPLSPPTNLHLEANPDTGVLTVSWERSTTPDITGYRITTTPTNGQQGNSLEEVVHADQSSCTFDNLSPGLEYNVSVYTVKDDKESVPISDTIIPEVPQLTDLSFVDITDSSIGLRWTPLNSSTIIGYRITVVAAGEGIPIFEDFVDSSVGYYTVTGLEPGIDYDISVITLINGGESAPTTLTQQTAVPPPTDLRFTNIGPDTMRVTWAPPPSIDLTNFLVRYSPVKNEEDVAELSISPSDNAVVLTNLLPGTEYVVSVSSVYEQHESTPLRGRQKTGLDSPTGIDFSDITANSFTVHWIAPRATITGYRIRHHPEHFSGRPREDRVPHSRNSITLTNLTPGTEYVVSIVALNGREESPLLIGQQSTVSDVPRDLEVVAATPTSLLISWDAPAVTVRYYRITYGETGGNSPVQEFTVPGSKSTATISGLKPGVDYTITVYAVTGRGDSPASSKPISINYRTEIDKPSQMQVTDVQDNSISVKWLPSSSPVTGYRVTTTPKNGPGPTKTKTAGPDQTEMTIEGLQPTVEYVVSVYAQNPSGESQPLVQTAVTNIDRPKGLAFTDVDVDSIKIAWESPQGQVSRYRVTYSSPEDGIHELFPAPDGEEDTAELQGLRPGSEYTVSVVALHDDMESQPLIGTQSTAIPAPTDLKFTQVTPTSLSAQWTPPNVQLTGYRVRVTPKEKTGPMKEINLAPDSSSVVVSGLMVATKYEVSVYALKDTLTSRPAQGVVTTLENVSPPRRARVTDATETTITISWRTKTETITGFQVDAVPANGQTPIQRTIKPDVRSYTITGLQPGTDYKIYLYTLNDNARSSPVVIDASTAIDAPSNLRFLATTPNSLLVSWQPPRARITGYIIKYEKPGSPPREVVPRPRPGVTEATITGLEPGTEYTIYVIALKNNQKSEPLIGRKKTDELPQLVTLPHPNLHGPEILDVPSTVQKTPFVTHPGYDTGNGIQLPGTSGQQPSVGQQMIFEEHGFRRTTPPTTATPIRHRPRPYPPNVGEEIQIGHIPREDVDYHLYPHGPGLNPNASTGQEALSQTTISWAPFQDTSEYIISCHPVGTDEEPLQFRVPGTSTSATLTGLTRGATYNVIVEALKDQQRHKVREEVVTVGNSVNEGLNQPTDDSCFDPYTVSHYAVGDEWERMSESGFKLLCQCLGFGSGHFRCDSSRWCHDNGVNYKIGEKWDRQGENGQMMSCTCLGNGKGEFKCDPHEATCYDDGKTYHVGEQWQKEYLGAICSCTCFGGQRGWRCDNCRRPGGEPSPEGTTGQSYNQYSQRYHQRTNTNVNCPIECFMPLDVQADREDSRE", "test": "histogram of Cy5 pixel intensities of ZD2-Cy5 staining (5 µM) of a human prostate tumor section, GS=9"}, "[4]": {"biological_target": "extradomain-B fibronectin (EDB-FN), human, as secreted or deposited by human cancer cells and in human tumour tissue (human) (UniProt P02751)", "test": "histogram of Cy5 pixel intensities of ZD2-Cy5 staining (5 µM) of a human prostate tumor section, GS=7"}, "[5]": {"biological_target": "extradomain-B fibronectin (EDB-FN), human, as secreted or deposited by human cancer cells and in human tumour tissue (human) (UniProt P02751)", "test": "histogram of Cy5 pixel intensities of ZD2-Cy5 staining (5 µM) of a human prostate BPH section, tissue with low EDB-FN"}, "[6]": {"biological_target": "T1, EDB fragment (extradomain B of …)", "test": "phage display, four rounds of panning on immobilised purified EDB fragment", "description": "The Ph.D C7C library (New England Biolabs, Beverly, Mass., USA) was used for screen EDB specific nonapeptides. Candidate peptides were selected by carrying out panning procedures for 4 rounds. In each round, purified EDB fragment (100 μg/ml) was immobilized on non-treated 96-well plates (Corning Costar, Tewksbury, Mass., USA) with overnight coating at 4° C. 0.5% BSA was used to block non-specific binding (1 hr, room temperature) followed by incubating with phages for 1 hr at room temperature. Extensive washing with PBST (0.1%, 0.3%, 0.5% […], respectively, for round 1-3) was used to remove non-binding phages before eluting bound phages by 0.1M Glycine-HC (pH 2.2) and neutralizing with Tris-HCl (pH 9.1). Eluted phages are tittered and amplified with E. coli (ER2758) according to the user's manual. Amplified phages in medium were purified by ultrafiltration and PEG/NaCl precipitation. At the end of round 4, properly diluted phages were cultured on LB/IPTG/Xgal plates and DNA from 29 randomly picked blue plaques were used for sequencing with supplied primers (New England Biolabs). Peptide sequences were resulted from translating of corresponding DNA sequences.\nThe Ph.D C7C library (New England Biolabs, Beverly, Mass.) was used to screen for EDB-specific cyclic nonapeptides. Candidate peptides were selected by panning for four rounds. […]"}, "[7]": {"biological_target": "T1, EDB fragment (extradomain B of …)", "test": "SPR (Biacore T100), EDB protein immobilised on a CM5 chip, Scatchard plot", "description": "The ZD2 peptide sequence, TVRTSAD (SEQ ID NO: 1), was synthesized in solid phase using Fmoc chemistry. A short spacer, Fmoc-9-amino-4,7-dioxanonanoic acid (Fmoc-NH-PEG₂-CH₂CH₂COOH), and 5-hexynoic acid, were also sequentially conjugated in solid phase followed by trifluoroacetic acid (TFA) treatment, which yielded ZD2-PEG-propargyl. Azido-Gd(HP-DO3A) was synthesized as reported previously. Click chemistry reaction between ZD2-PEG-propargyl (1 Eq) and azido-Gd(HP-DO3A) (1.1 Eq) was performed in a 2:1 mixture of t-butanol and water under nitrogen following addition of [Cu(MeCN)₄]PF₆ (0.02 Eq) and TBTA (Tris[(1-benzyl-1H-1,2,3-triazol-4-yl)methyl]amine, 0.02 Eq). The final product, named ZD2-Gd(HP-DO3A), was purified by high performance liquid chromatography (HPLC) on an Agilent 1100 HPLC system equipped with a semi-preparative C18 column. […] The Gd(III) content was measured by inductively coupled plasma optical emission spectroscopy (ICP-OES Optima 3100XL, Perkin-Elmer, Norwalk, Conn.). […] Sensorgrams generated from the binding between contrast agents and EDB were recorded with Biacore T100 (GE healthcare, Waukesha, Wis.), and analyzed using Scatchard plot. Affinity was calculated by fitting data into a linear line, with the slope of the line representing −1/Kd."}},
  "note": "Bridges are numbered along the chain shown (N, C = ends). Where no end group is shown, it is not given here. Side-chain parts run from the residue outwards. maleimide = maleimide group that reacts with the cysteine thiol to conjugate the peptide to the carrier (horseradish peroxidase); Gd(HP-DO3A) (azide, via triazole) = azido-Gd(HP-DO3A) gadolinium chelate, click-linked through a triazole; sulfo‑Cy5 = sulfo-cyanine 5 fluorescent label; HRP = horseradish peroxidase; PEG3 = NCCOCCOCCOCCC(=O)O",
  "data": [
    {"binder": "CERAK (also: conjugated to HRP, 'similarly' to l-ZD2-HRP, Control peptide)", "note": "[CERAK-HRP]", "values": [
      {"measurement": "binding result", "setting": "[1]", "value": "no binding"}
    ]},
    {"binder": "H-TVRTSADC([maleimide-HRP])-OH", "values": [
      {"measurement": "binding result", "setting": "[2]", "value": "no binding"}
    ]},
    {"binder": "{sulfo‑Cy5-PEG3}-CTVRTSADC-OH (disulfide 1-9)", "note": "[ZD2-Cy5 (cyclic ZD2 peptide … labelled with Cy5 through a short PEG linker)]", "values": [
      {"measurement": "percent pixel counts of Cy5 pixel value 50 to 255", "setting": "[3]", "value": 72.2, "unit": "%"},
      {"measurement": "percent pixel counts of Cy5 pixel value 50 to 255", "setting": "[4]", "value": 40, "unit": "%"},
      {"measurement": "percent pixel counts of Cy5 pixel value 50 to 255", "setting": "[5]", "value": 2.1, "unit": "%"}
    ]},
    {"binder": "CTVRTSADC (disulfide 1-9 (inferred); not fully specified, also called cyclic nonapeptide ZD2)", "note": "[cyclic ZD2 peptide (CTVRTSADC) as selected by phage display]", "values": [
      {"measurement": "binding result", "setting": "[6]", "value": "binds"}
    ]},
    {"binder": "{Gd(HP-DO3A) (azide, via triazole)-5‑hexynoic acid-9‑amino‑4,7‑dioxanonanoic acid}-TVRTSAD (also: Gd complex, also called ZD2-Gd(DO3A))", "note": "[ZD2-Gd(HP-DO3A) (linear ZD2 peptide TVRTSAD joined through PEG and a triazole to Gd(HP-DO3A))]", "values": [
      {"measurement": "Kd", "setting": "[7]", "value": 1700, "unit": "nM"}
    ]}
  ]
}
